Reference: the supplement of paper PMC7125110
± gives the standard error. For some of these results: This sample holds only a part of the variants without activity.

B1: glmS ribozyme (parent)
chain: AUAAAAGCGCCAGAACUACAGAAAUGUAGUUGACGAGGAGGAGGUUUAUCGAAUUUUCGGCGGAUGCCUCCAAA

Experiments:
Details in all cases: with glucosamine-6-phosphate
[1] = variants of: B1; test: kcat; higher = faster cleavage; RNA array
In short: (§1)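 Weighted Michaelis–Menten fits across concentrations supplied kcat and KM, based on kobs from one- or two-exponential decay fits to normalised per-tile medians. The data came from barcoded ribozyme variants transcribed in situ by E. coli RNA polymerase on sequenced MiSeq chips and tracked at 37 °C by a hybridised Cy3 probe. Glucosamine-6-phosphate (40 μM to 10 mM) in HEPES/KCl/Mg(OAc)2 buffer was flowed in.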

[2] = variants of: B1; test: KM; higher = weaker cofactor use; RNA array
In short: as §1

[3] = variants of: B1; test: self-cleavage kobs at 160 uM GlcN6P; higher = faster cleavage; RNA array
In short: as §1

[4] = variants of: B1; test: self-cleavage kobs at 640 uM GlcN6P; higher = faster cleavage; RNA array
In short: as §1

[5] = variants of: B1; test: self-cleavage kobs at 2500 uM GlcN6P; higher = faster cleavage; RNA array
In short: as §1

[6] = variants of: B1; test: self-cleavage kobs at 10000 uM GlcN6P; higher = faster cleavage; RNA array
In short: as §1

[7] = variants of: B1; test: self-cleavage kobs at 40 uM GlcN6P; higher = faster cleavage; RNA array
In short: as §1

Variant	kcat [1] [s⁻¹]	KM [2] [µM]	self-cleavage kobs at 160 uM GlcN6P [3] [s⁻¹]	self-cleavage kobs at 640 uM GlcN6P [4] [s⁻¹]	self-cleavage kobs at 2500 uM GlcN6P [5] [s⁻¹]	self-cleavage kobs at 10000 uM GlcN6P [6] [s⁻¹]	self-cleavage kobs at 40 uM GlcN6P [7] [s⁻¹]
A12G G40A	0.000633 ± 0.00014	4040 ± 1300	1.6e-05 ± 7.3e-06	9.61e-05 ± 8.9e-06	0.000218 ± 2.3e-05	0.000486 ± 6.3e-05	
C11U U46G	0.000268 ± 4.3e-05	2460 ± 740		5.11e-05 ± 7.1e-06	0.00018 ± 2.7e-05	0.000204 ± 2.3e-05	
A12U G13U	0.000141 ± 9.1e-06	1130 ± 200		5.07e-05 ± 9.6e-06	9.95e-05 ± 1.1e-05	0.000123 ± 1.8e-05	
A12U C16A A33U A36C G38A G62A U69A C71U	2.12e-05 ± 1.1e-06						
A12G A53G	0.0017 ± 0.00017	4470 ± 620	5.44e-05 ± 7.9e-06	0.000231 ± 3.1e-05	0.000633 ± 7e-05	0.00114 ± 0.00015	
A12G A53U	0.00085 ± 8.4e-05	4340 ± 620	2.34e-05 ± 7.6e-06	0.000112 ± 1e-05	0.000319 ± 3e-05	0.00058 ± 6.7e-05	
G13A C67G	2.66e-05 ± 2.6e-06			2.71e-05 ± 1.2e-05	3.63e-05 ± 1.7e-05	2.48e-05 ± 6.5e-06	< 1e-05
A12U C16A	0.00549 ± 0.00094	2210 ± 520		0.00128 ± 0.00027	0.00417 ± 0.00091	0.00413 ± 0.00074	9.36e-05 ± 1.5e-05
A12C U47C	0.00284 ± 0.00039	1840 ± 380	0.000185 ± 3.6e-05	0.000953 ± 0.00013	0.00187 ± 0.00022	0.00226 ± 0.0002	5.87e-05 ± 6.2e-06
A12C U47A	0.011 ± 0.0034	1620 ± 740	0.00131 ± 0.00027	0.00346 ± 0.00056	0.00529 ± 0.00087	0.014 ± 0.0025	0.000246 ± 4.3e-05
A12C U47G	0.00307 ± 0.00048	1400 ± 310	0.000267 ± 4.4e-05	0.00106 ± 0.00014	0.00247 ± 0.00041	0.00245 ± 0.00036	9.09e-05 ± 1.3e-05
A12G G51C	< 1e-05		< 1e-05		< 1e-05	< 1e-05	< 1e-05
A12U G44U U47G	1.54e-05 ± 2.4e-06						
A12G G32C C68G	1.4e-05 ± 2.2e-06						
A12C G13A	0.000473 ± 0.00016			6.42e-05 ± 1.2e-05	0.000302 ± 5.1e-05	0.00032 ± 5.7e-05	
C11U U31G	0.00667 ± 0.0031		0.000255 ± 6.7e-05	0.000818 ± 0.00016	0.00175 ± 0.0004	0.00565 ± 0.00097	0.000105 ± 2.5e-05

Variant	kcat [1] [s⁻¹]	KM [2] [µM]	self-cleavage kobs at 160 uM GlcN6P [3] [s⁻¹]	self-cleavage kobs at 640 uM GlcN6P [4] [s⁻¹]	self-cleavage kobs at 2500 uM GlcN6P [5] [s⁻¹]	self-cleavage kobs at 10000 uM GlcN6P [6] [s⁻¹]	self-cleavage kobs at 40 uM GlcN6P [7] [s⁻¹]
A12C A39G	0.0192 ± 0.0069	2230 ± 1000	0.00113 ± 0.00026	0.00513 ± 0.0012	0.00799 ± 0.0015	0.0245 ± 0.0049	0.000367 ± 4.7e-05
G13A C50A	< 1e-05					< 1e-05	< 1e-05
A12U G37A G40C	0.00099 ± 0.00024	4220 ± 1400	2.74e-05 ± 1.2e-05	0.000134 ± 1.7e-05	0.000386 ± 9.8e-05	0.000686 ± 0.00012	
A12U C16A U56A	0.00194 ± 0.00074			0.000636 ± 0.00015	0.00102 ± 0.00035	0.00247 ± 0.00041	0.000111 ± 2e-05
A12G A52G A53G	2.52e-05 ± 7.9e-06						
A12C U57C	0.000312 ± 5.1e-05	4850 ± 1600		4.73e-05 ± 1.2e-05	9.32e-05 ± 1.7e-05	0.000214 ± 2.2e-05	
A12C U57A	0.000102 ± 2.4e-05			5.75e-05 ± 1.5e-05	6.14e-05 ± 1.2e-05	0.000113 ± 1.9e-05	
A12U C71G	0.00158 ± 0.00072		0.000316 ± 5.2e-05	0.00125 ± 0.00015	0.000947 ± 0.00021	0.00305 ± 0.00048	0.000203 ± 2.3e-05
C11U U54C U56C	0.000628 ± 6.2e-05	8410 ± 1200		4.18e-05 ± 1.9e-05	0.000151 ± 4.7e-05	0.000337 ± 9.5e-05	
A12C U55A	0.0159 ± 0.0051	888 ± 360	0.00192 ± 0.00036	0.00819 ± 0.0014	0.0112 ± 0.0021		0.000742 ± 8.1e-05
A12C U55C	0.00941 ± 0.0032	2710 ± 1200	0.000402 ± 8.8e-05	0.00235 ± 0.00034	0.00417 ± 0.00083	0.00731 ± 0.0019	0.000147 ± 2.6e-05
A12U C50A	0.000111 ± 2.6e-06	1660 ± 130		3.27e-05 ± 1.3e-05	6.47e-05 ± 1.4e-05	9.58e-05 ± 1.2e-05	
G13A U47C	8.51e-05 ± 5.3e-06	7300 ± 1000				4.92e-05 ± 1.1e-05	
G13A U47G	0.000123 ± 1.6e-05	1830 ± 670		2.44e-05 ± 9.5e-06	8.26e-05 ± 1.3e-05	9.97e-05 ± 1.3e-05	
A12C C61A	< 1e-05					< 1e-05	
